Common to all, as to test: cell-based or functional assay
Assay [1] deals with T1, human CD20 on CD20-expressing cell lines (human, UniProt P11836 1-297).
T1 sequence: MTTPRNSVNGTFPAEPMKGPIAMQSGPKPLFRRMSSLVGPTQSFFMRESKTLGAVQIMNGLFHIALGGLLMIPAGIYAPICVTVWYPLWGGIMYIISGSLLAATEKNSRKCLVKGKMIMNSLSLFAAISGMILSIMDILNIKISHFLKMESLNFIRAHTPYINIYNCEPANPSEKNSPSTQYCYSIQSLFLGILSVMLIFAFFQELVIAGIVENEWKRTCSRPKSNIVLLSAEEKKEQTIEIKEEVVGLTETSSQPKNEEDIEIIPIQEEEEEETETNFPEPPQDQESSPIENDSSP

Assay [2] concerns the target T1, human CD20 on CD20-expressing cell lines. The source holds these as a separate data set.
The target is the same in assay [3]. The source holds these as a separate data set.
For assay [4] the target is unchanged. The source holds these as a separate data set.

B1: 1.5.3 IgG (IgG1) (antibody, V domains shown)
VH: EVQLVQSGAEVKKPGESLKISCKGSGYSFTSYWIGWVRQMPGKGLEWMGIIYPGDSDTRYSPSFQGQVTISADKSITTAYLQWSSLKASDTAMYYCARHPSYGSGSPNFDYWGQGTLVTVSS
VL: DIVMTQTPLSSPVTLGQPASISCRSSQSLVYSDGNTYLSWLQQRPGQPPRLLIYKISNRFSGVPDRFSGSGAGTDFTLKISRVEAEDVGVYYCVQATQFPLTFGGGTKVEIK
For the molecule B1, in assay [1], the “CDC EC50 on DOHH-2 cells” value came to 4.6 nM and the “CDC EC50 on Z-138 cells” value was more than 100 nM.

B2: rituximab (IgG1) (antibody, V domains shown)
VH: QVQLQQPGAELVKPGASVKMSCKASGYTFTSYNMHWVKQTPGRGLEWIGAIYPGNGDTSYNQKFKGKATLTADKSSSTAYMQLSSLTSEDSAVYYCARSTYYGGDWYFNVWGAGTTVTVSA
VL: QIVLSQSPAILSASPGEKVTMTCRASSSVSYIHWFQQKPGSSPKPWIYATSNLASGVPVRFSGSGSGTSYSLTISRVEAEDAATYYCQQWTSNPPTFGGGTKLEIKR
Regarding B2, in assay [2], the “KILR cytotoxicity assay, potency relative to the 1.5.3 IgM antibodies” value was not below 30 fold less potent. Also, in assay [1], the “CDC EC50 on DOHH-2 cells” value worked out at 22 nM and the “CDC EC50 on Z-138 cells” value is more than 100 nM. Moreover, the “CDC (IC50) on Raji cells” value in assay [3] was more than 50 µg/mL.

B3: Rituxan IgM+V15J (bispecific anti-CD20 x anti-CD3 IgM pentamer) (bispecific antibody)
heavy: QVQLQQPGAELVKPGASVKMSCKASGYTFTSYNMHWVKQTPGRGLEWIGAIYPGNGDTSYNQKFKGKATLTADKSSSTAYMQLSSLTSEDSAVYYCARSTYYGGDWYFNVWGAGTTVTVSSGSASAPTLFPLVSCENSPSDTSSVAVGCLAQDFLPDSITFSWKYKNNSDISSTRGFPSVLRGGKYAATSQVLLPSKDVMQGTDEHVVCKVQHPNGNKEKNVPLPVIAELPPKVSVFVPPRDGFFGNPRKSKLICQATGFSPRQIQVSWLREGKQVGSGVTTDQVQAEAKESGPTTYKVTSTLTIKESDWLSQSMFTCRVDHRGLTFQQNASSMCVPDQDTAIRVFAIPPSFASIFLTKSTKLTCLVTDLTTYDSVTISWTRQNGEAVKTHTNISESHPNATFSAVGEASICEDDWNSGERFTCTVTHTDLPSPLKQTISRPKGVALHRPDVYLLPPAREQLNLRESATITCLVTGFSPADVFVQWMQRGQPLSPEKYVTSAPMPEPQAPGRYFAHSILTVSEEEWNTGETYTCVVAHEALPNRVTERTVDKSTGKPTLYNVSLVMSDTAGTCY
light: QIVLSQSPAILSASPGEKVTMTCRASSSVSYIHWFQQKPGSSPKPWIYATSNLASGVPVRFSGSGSGTSYSLTISRVEAEDAATYYCQQWTSNPPTFGGGTKLEIKRTVAAPSVFIFPPSDEQLKSGTASVVCLLNNFYPREAKVQWKVDNALQSGNSQESVTEQDSKDSTYSLSSTLTLSKADYEKHKVYACEVTHQGLSSPVTKSFNRGEC
chain: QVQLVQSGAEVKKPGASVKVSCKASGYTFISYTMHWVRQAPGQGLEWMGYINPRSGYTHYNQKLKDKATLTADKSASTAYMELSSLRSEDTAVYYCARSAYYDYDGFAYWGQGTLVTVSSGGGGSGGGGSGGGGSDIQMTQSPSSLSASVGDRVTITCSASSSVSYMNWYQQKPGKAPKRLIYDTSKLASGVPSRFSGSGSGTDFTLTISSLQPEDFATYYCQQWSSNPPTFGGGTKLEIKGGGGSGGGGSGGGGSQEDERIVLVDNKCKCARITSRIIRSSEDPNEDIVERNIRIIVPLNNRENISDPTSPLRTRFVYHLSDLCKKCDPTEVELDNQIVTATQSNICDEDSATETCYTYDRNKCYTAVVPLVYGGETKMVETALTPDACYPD
Consider B3, for which, in assay [4], the “T-cell directed B-cell killing, LDH release, EC50 on DB cells” value came out at 0.0005 µg/mL; the “T-cell directed B-cell killing, LDH release, EC50 on DOHH2 cells” value was 0.013 µg/mL; the “T-cell directed B-cell killing, LDH release, EC50 on Z-138 cells” value amounted to 0.03 µg/mL.

B4: 1.5.3 IgM+V15J (bispecific anti-CD20 x anti-CD3 IgM pentamer) (bispecific antibody)
heavy: EVQLVQSGAEVKKPGESLKISCKGSGYSFTSYWIGWVRQMPGKGLEWMGIIYPGDSDTRYSPSFQGQVTISADKSITTAYLQWSSLKASDTAMYYCARHPSYGSGSPNFDYWGQGTLVTVSSGSASAPTLFPLVSCENSPSDTSSVAVGCLAQDFLPDSITFSWKYKNNSDISSTRGFPSVLRGGKYAATSQVLLPSKDVMQGTDEHVVCKVQHPNGNKEKNVPLPVIAELPPKVSVFVPPRDGFFGNPRKSKLICQATGFSPRQIQVSWLREGKQVGSGVTTDQVQAEAKESGPTTYKVTSTLTIKESDWLSQSMFTCRVDHRGLTFQQNASSMCVPDQDTAIRVFAIPPSFASIFLTKSTKLTCLVTDLTTYDSVTISWTRQNGEAVKTHTNISESHPNATFSAVGEASICEDDWNSGERFTCTVTHTDLPSPLKQTISRPKGVALHRPDVYLLPPAREQLNLRESATITCLVTGFSPADVFVQWMQRGQPLSPEKYVTSAPMPEPQAPGRYFAHSILTVSEEEWNTGETYTCVVAHEALPNRVTERTVDKSTGKPTLYNVSLVMSDTAGTCY
light: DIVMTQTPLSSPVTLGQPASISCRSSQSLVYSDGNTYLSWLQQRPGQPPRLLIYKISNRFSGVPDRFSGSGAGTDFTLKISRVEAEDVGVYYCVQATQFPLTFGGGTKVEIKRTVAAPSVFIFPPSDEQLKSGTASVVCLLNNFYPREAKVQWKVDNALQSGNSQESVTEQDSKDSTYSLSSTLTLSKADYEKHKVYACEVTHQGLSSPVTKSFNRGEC
chain: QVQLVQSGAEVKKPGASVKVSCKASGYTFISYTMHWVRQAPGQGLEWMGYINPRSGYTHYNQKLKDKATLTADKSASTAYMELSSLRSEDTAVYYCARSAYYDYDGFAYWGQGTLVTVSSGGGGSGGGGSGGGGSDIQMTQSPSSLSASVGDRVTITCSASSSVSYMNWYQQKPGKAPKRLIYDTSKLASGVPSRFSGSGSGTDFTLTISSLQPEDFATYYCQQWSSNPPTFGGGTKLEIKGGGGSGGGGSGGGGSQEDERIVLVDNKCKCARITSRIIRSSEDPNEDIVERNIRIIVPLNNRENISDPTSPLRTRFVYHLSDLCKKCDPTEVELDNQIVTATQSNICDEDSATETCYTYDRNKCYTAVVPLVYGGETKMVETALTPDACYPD
For the molecule B4, in assay [4], the “T-cell directed B-cell killing, LDH release, EC50 on DB cells” value was determined as 0.0004 µg/mL; the “T-cell directed B-cell killing, LDH release, EC50 on DOHH2 cells” value is 0.012 µg/mL; the “T-cell directed B-cell killing, LDH release, EC50 on Z-138 cells” value came out at 0.033 µg/mL. For the same molecule, in assay [2], the “T-cell directed B-cell killing, LDH release, EC50 on DB cells (molar)” value worked out at 0.0004 nM.

(Values after patent publication US20190100597A1 (IGM BIOSCIENCES, published 2019).)
